Experimental data from paper PMC7335091, “Mechanistic insights into chromatin targeting by leukemic NUP98-PHF23 fusion” (Nature Communications, 2020).
Like-named read-outs stand apart in the source and are kept apart here. Non-standard residues stand in square brackets, D forms with d. No end group written: not given here. Lys(Me3) = C[N+](C)(C)CCCC[C@H](N)C(=O)O

B2: PHD finger of PHF23 (aa 338-393), wild type (domain or fragment, human, UniProt Q9BUL5 338-393, looked up)
chain: DLITCYCRKPFAGRPMIECSLCGTWIHLSCAKIKKTNVPDFFYCQKCKELRPEARR
notes: human PHF23, PHD domain, aa 338-393, cloned into pGEX 6p-1; 15N- or 13C,15N-labelled for NMR; also called PHF23PHD; WT PHF23PHD; source: E. coli BL21 (DE3) RIL, purified (glutathione Sepharose 4B, GST cleaved, size exclusion chromatography)

Tests used:
[1] = target: PHD finger of PHF23 (aa 338-393), wild type (human) (UniProt Q9BUL5); assay: other fluorescence titration; intrinsic tryptophan fluorescence, 25 °C; 2.0 µM PHF23PHD with increasing peptide, PBS (pH 6.5), 1 mM TCEP, excitation 295 nm; Kd averaged over three experiments
[2] = target: T1, PHF23 PHD finger (PHF23PHD) (Homo sapiens, UniProt Q9BUL5); assay: 1H, […] HSQC NMR titration; nonreducing SDS-PAGE; format: binding
T1 construct: PHD domain (aa 338–393)
T1 sequence (Q9BUL5 338-393): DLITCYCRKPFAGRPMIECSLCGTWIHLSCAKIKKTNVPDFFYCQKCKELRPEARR

[3] = target: histone H3K4me3 peptide (Homo sapiens) (UniProt P68431); settings: cited from earlier work
[4] = target: histone H3K4me3 peptide (Homo sapiens) (UniProt P68431); settings: cited from earlier work; remark: listed apart in the source
[5] = target: B2; assay: NMR titration; 1H,15N HSQC at 298 K; 0.1 mM 15N-labeled PHD in PBS (pH 6.5), 1 mM TCEP, 8% D2O; histone H3 peptide titrated in; Kd from chemical shift changes against peptide concentration; settings: both partners purified
[6] = target: the molecule itself; assay: crystal structure; PHF23PHD crystallized in the presence of H3K4me3 peptide; 0.1 M Tris pH 8.65, 25% tert-butanol, 18 °C; 2.9 Å; the peptide is not in the structure
[7] = target: B2; assay: other fluorescence titration; intrinsic tryptophan fluorescence, 25 °C; 2.0 µM PHF23PHD with increasing peptide, PBS (pH 6.5), 1 mM TCEP, excitation 295 nm; Kd averaged over three experiments; settings: both partners purified
[8] = target: T2, PHD finger of PHF23 (aa 338-393), L358M cancer-relevant mutant (human, UniProt Q9BUL5 338-393, L358M); assay: as above; settings: both partners purified
T2 construct: human PHF23, PHD domain, aa 338-393, with the cancer-relevant mutation L358M (Cosmic); also called PHF23PHD L358M; source: E. coli BL21 (DE3) RIL, grown and purified as wild-type protein
T2 sequence (looked up): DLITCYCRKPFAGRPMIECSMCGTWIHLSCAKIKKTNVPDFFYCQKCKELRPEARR

[9] = target: T3, PHD finger of PHF23 (aa 338-393), R345L cancer-relevant mutant (human, UniProt Q9BUL5 338-393, R345L); assay: as above; settings: both partners purified
T3 construct: human PHF23, PHD domain, aa 338-393, with the cancer-relevant mutation R345L (Cosmic); also called PHF23PHD R345L; source: E. coli BL21 (DE3) RIL, grown and purified as wild-type protein
T3 sequence (looked up): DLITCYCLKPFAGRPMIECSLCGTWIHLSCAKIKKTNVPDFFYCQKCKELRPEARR

[10] = target: PHD finger of PHF23 (aa 338-393), L358M cancer-relevant mutant (human, UniProt Q9BUL5 338-393, L358M)
[11] = target: PHD finger of PHF23 (aa 338-393), R345L cancer-relevant mutant (human, UniProt Q9BUL5 338-393, R345L)

Which Kd [1] does the source give for histone H3K4me2 peptide here?
Its Kd is 8 µM.

Which “1H,15N HSQC NMR titration; nonreducing SDS-PAGE” value [2] does the source give for `CCN(CC)C(=S)SSC(=S)N(CC)CC` [DS, disulfiram] here?
The value was “Gradual addition of AD or DS to PHF23PHD induced small but significant CSPs in the protein, indicative of direct interactions”.

For KDM5A PHD (from UniProt P29375), which Kd [3] is on record?
The Kd was 0.9 µM.

With BPTF PHD (from UniProt Q12830) as the molecule, how does the Kd [4] read?
The Kd was 3 µM.

B1: histone H3K4me0 peptide (unmodified H3) (peptide)
chain: ARTKQTARKSTG
modifications: unmodified Lys4. Limits 1-12 taken from the H3K4me3 peptide of the same titration series
For B1, which Kd [5] is on record?
The Kd was 1600 µM.

Does B2 bind [6]?
Result: binds

B3: histone H3K4me3 peptide (aa 1-12 of H3K4me3) (peptide, UniProt P68431 2-13, looked up)
peptide: ART[Lys(Me3)]QTARKSTG
notes: histone H3, residues 1-12, trimethylated on Lys4; source: synthetic peptide (SynPeptide)
Which results are given for B3?
Kd [7]: 2 µM; binding result [8]: binds; binding result [9]: binds; Kd [10]: 2.4 µM; Kd [11]: 4.3 µM

With ARTK(Me)QTARKSTG [histone H3K4me1 peptide] as the molecule, how does the Kd [5] read?
The Kd was 580 µM.
